The values that follow come from patent publication US20030157685.

Series [1] concerns the target His-Max made in bacteria, P61244.
For series [2], the target named is T1, endogenous Omi protein precipitated from 293 cells with the anti-Omi polyclonal antibody.
T1 chain: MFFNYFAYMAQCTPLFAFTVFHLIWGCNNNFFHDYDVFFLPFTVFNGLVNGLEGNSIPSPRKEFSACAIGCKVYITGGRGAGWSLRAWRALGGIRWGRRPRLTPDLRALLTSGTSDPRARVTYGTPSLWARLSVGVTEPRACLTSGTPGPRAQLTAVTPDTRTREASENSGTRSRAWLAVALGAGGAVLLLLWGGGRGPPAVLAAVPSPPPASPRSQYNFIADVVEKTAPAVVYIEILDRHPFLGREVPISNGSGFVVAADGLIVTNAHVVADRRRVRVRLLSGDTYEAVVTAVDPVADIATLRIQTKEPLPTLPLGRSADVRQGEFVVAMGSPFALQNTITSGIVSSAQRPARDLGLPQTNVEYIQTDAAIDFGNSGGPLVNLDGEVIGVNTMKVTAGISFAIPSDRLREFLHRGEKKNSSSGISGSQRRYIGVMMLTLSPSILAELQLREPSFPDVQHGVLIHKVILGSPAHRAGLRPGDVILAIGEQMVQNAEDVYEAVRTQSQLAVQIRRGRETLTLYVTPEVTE

Sequence of His-Max made in bacteria, P61244 (P61244 whole entry): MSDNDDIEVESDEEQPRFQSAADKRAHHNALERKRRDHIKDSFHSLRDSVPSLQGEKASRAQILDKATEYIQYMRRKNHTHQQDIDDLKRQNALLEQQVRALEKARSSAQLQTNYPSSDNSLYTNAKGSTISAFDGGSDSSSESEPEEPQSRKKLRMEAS

B1: Mxi2 as a hemaglutinin epitope-tagged fusion (Mxi2-HA), expressed in 293 cells (protein)
chain: MSQERPTFYRQELNKTIWEVPERYQNLSPVGSGAYGSVCAAFDTKTGLRVAVKKLSRPFQSIIHAKRTYRELRLLKHMKHENVIGLLDVFTPARSLEEFNDVYLVTHLMGADLNNIVKCQKLTDDHVQFLIYQILRGLKYIHSADIIHRDLKPSNLAVNEDCELKILDFGLARHTDDEMTGYVATRWYRAPEIMLNWMHYNQTVDIWSVGCIMAELLTGRTLFPGTDHIDQLKLILRLVGTPGAELLKKISSESARNYIQSLTQMPKMNFANVFIGANPLGKLTIYPHLMDIELVMI
B1: in series [1], the “phosphorylation of Max by isolated HA-Mxi2 (autoradiograph)” value was “The autoradiograph shows Omi as well as Max protein was phosphorylated” and the “phosphorylation of Max in the same kinase reaction” value is recorded as “Max was also phopshorylated very efficiently”. Further, in series [2], the “phosphorylation of Omi by isolated HA-Mxi2 (autoradiograph)” value is listed as “The autoradiograph shows Omi as well as Max protein was phosphorylated”; the “phosphorylation of Omi in a kinase reaction on the immunoprecipitated Omi/Mxi2 complex ([gamma-32P]ATP, autoradiography)” value is recorded as “Phosphorylated Omi is shown as a doublet of phosphorylated polypeptides with a molecular weight of 57-59 kD”; the “proteolytic activity of Omi (colorimetric assay, absorbance at 450 nm)” value was “the proteolytic activity of Omi increases dramatically when phosphorylated by Mxi2”.
